The source of these data is PMC6105678.

Test [1] concerns the target Bonsai gelsolin, fragment 28–161 of gelsolin (human). Put plainly: SAXS; 28–161 at 8 mg/ml, 1 mM EGTA, 40 °C.
For test [2] the target is unchanged. Put plainly: SAXS; 28–161 at 8 mg/ml, 1 mM EGTA, 30 °C.
Test [3] has the same target. Put plainly: SAXS; 28–161 at 8 mg/ml, 1 mM free Ca2+, 40 °C.
Test [4] shares this target. Put plainly: SEC; 8 mg/ml in EGTA buffer heated at 30 °C for 30 min, cooled to room temperature; 200 μl injected, column at room temperature. In general terms: SEC sorts molecules by how far they enter the pores of the column.

On to “Bonsai gelsolin, fragment 28–161 of gelsolin (domain or fragment)”, for which the stoichiometry N in test [1] came to 4; in test [2], 2; in test [3] it was 2; in test [4], 2.

What is called stoichiometry N is the number of molecules, sites or subunits per partner or assembly.
